# Reference: the RNAGym collection of RNA variant scans (doi:10.7554/elife.80360)
# B1: Hairpin Ribozyme (parent)
# chain: GUCCUCUUUCACGUGCGCGUGAAAGAGAGAAGUGAACCAGAGAAACACACGUUGUGGUAUAUUACCUGGUA
# Variants of: B1
# Assay: self-cleavage, relative activity (ratio to wild type); higher = more cleavage; co-transcriptional
row,Variant,self-cleavage
1,GUCCUCUUUCACGUGCGGGAGAAAGAGAGAAGUGAACCAGAGAAACACACGUUGUGGUAUAUUACCUGGUA [C18G U20A],0.772
2,GUCCUCUUUCACGUGCGGGUGAAAGAGAGAAGUGAACCAGAGAAACACACGUUGUGGUAUAGUACCUGGUA [C18G U62G],0.163
3,GUCCUCUUUCACGUGCGGGUGAAAGAGAGAAGUGUACCAGAGAAACACACGUUGUGGUAUAUUACCUGGUA [C18G A35U],0.544
4,GUCCUCUUUCACGUGCGGGUGAAAGUGAGAAGUGAACCAGAGAAACACACGUUGUGGUAUAUUACCUGGUA [C18G A26U],0.512
5,GUCCUCUUUCACGUGCGGGUGAAAGAGAGAAGUGAACCAGAGCAACACACGUUGUGGUAUAUUACCUGGUA [C18G A43C],0.122
6,GUCCUCUUUCACGUGCGGGUGAAAGAGAGAAGUGAACCAGAGUAACACACGUUGUGGUAUAUUACCUGGUA [C18G A43U],0.0776
7,GUCCUCUUUCACGUGCGGGUGAAAGAGAGAAGUGAACCAGAGAAACACACGUUGUGGCAUAUUACCUGGUA [C18G U58C],0.802
8,GUCCUCUUUCACGUGCGGGUGAAAGAGAGAAGUUAACCAGAGAAACACACGUUGUGGUAUAUUACCUGGUA [C18G G34U],1.32
9,GUCCUCUUUCACGUGCGGGUGAAAGAGAGAAGUCAACCAGAGAAACACACGUUGUGGUAUAUUACCUGGUA [C18G G34C],1.17
10,GUCCUCUUUCACGUGCGGGUGAAAGAGAGAAGUGAACCAGAGAAACACACGUUGUGGUCUAUUACCUGGUA [C18G A59C],0.224
11,GUCCUCUUUCACGUGCGAGUGAAAGAGAGAAGUGAACCAGAGAAACACACGUUGUGGUAUAGUACCUGGUA [C18A U62G],0.138
12,GUCCUCUUUCACGUGCGAGUGAAAGAGAGAAGUGAACCAGAGAAACACACGUUGUGGUAUAAUACCUGGUA [C18A U62A],0.204
13,GUCCUCUUUCACGUGCGAGUGAAAGAGAGAAGUGAACCAGAGAAACACACGUUGUGGUAUACUACCUGGUA [C18A U62C],0.22
14,GUCCUCUUUCACGUGCGGGUGAAAGAGAGAAGUGAACCAGAGAAACACACGUUGUGGUAUAUUACCUGGUU [C18G A71U],0.698
15,GUCCUCUUUCACGUGCGUGUGAAAGAGAGACGUGAACCAGAGAAACACACGUUGUGGUAUAUUACCUGGUA [C18U A31C],0.0854
16,GUCCUCUUUCACGUGCGGGUGAAAGAGAGAAGUGAACCAGAGAAACACACGUUGUGGUAUAUUACGUGGUA [C18G C66G],0.19
17,GUCCUCUUUCACGUGCGGGUGAAAGAGAGAAGUGAACCAGAGAAACACACGUUGUGGUAUAUUACUUGGUA [C18G C66U],0.479
18,GUCCUCUUUCACGUGCGGGUGAAAGAGAGAAAUGAACCAGAGAAACACACGUUGUGGUAUAUUACCUGGUA [C18G G32A],0.154
19,GUCCUCUUUCACGUGCGGGUGAAAGAGAGAAUUGAACCAGAGAAACACACGUUGUGGUAUAUUACCUGGUA [C18G G32U],0.1
20,GUCCUCUUUCACGUGCGGGUGAAAGAGAGAAGUGAACCAGAGAACCACACGUUGUGGUAUAUUACCUGGUA [C18G A45C],0.152
21,GUCCUCUUUCACGUGCGAGUGAAAGAGAGAAGUGAACCAGAGAAACACACGUUGUGGUAUAUUACCUGGCA [C18A U70C],0.952
22,GUCCUCUUUCACGUGCGGCUGAAAGAGAGAAGUGAACCAGAGAAACACACGUUGUGGUAUAUUACCUGGUA [C18G G19C],0.804
23,GUCCUCUUUCACGUGCGGGUGAAAGAGAGAAGUGAACCAGACAAACACACGUUGUGGUAUAUUACCUGGUA [C18G G42C],0.255
24,GUCCUCUUUCACGUGCGGGUGAAAGAGAGAAGUGAACCAGGGAAACACACGUUGUGGUAUAUUACCUGGUA [C18G A41G],0.555
25,GUCCUCUUUCACGUGCGGGUGAAAGAGAGAAGUGAACCAGUGAAACACACGUUGUGGUAUAUUACCUGGUA [C18G A41U],0.906
26,GUCCUCUUUCACGUGCGGGUGAAAAAGAGAAGUGAACCAGAGAAACACACGUUGUGGUAUAUUACCUGGUA [C18G G25A],0.578

row,Variant,self-cleavage
1,GUCCUCUUUCACGUGCGAGUGAAAGAGAGAAGUGAACCAGAGAAACACACGUGGUGGUAUAUUACCUGGUA [C18A U53G],0.891
2,GUCCUCUUUCACGUGCGGGUGGAAGAGAGAAGUGAACCAGAGAAACACACGUUGUGGUAUAUUACCUGGUA [C18G A22G],0.804
3,GUCCUCUUUCACGUGCGGGUGCAAGAGAGAAGUGAACCAGAGAAACACACGUUGUGGUAUAUUACCUGGUA [C18G A22C],0.79
4,GUCCUCUUUCACGUGCGAGUGAAAGAGAGAAGUGAACCAGAGAAACACACGUUGUGGUAGAUUACCUGGUA [C18A U60G],0.732
5,GUCCUCUUUCACGUGCGAGUGAAAGAGAGAAGUGAACCAGAGAAACACACGUUGUGGUAAAUUACCUGGUA [C18A U60A],1.02
6,GUCCUCUUUCACGUGCGGGUGAAAGAGAGAAGUGAACCAGAGAAACACACGUUGUGGUAUGUUACCUGGUA [C18G A61G],0.152
7,GUCCUCUUUCACGUGCGGGUGAAAGAGAGAAGUGAACCAGAGAAACACACGUUGUGGUAUCUUACCUGGUA [C18G A61C],0.201
8,GUCCUCUUUCACGUGCGGGUGAAAGAGAGAAGUGAACGAGAGAAACACACGUUGUGGUAUAUUACCUGGUA [C18G C38G],0.125
9,GUCCUCUUUCACGUGCGGGUGAAAGAGAGAAGUGAACAAGAGAAACACACGUUGUGGUAUAUUACCUGGUA [C18G C38A],0.11
10,GUCCUCUUUCACGUGCGGGUAAAAGAGAGAAGUGAACCAGAGAAACACACGUUGUGGUAUAUUACCUGGUA [C18G G21A],0.767
11,GUCCUCUUUCACGUGCGGGUGAGAGAGAGAAGUGAACCAGAGAAACACACGUUGUGGUAUAUUACCUGGUA [C18G A23G],0.84
12,GUCCUCUUUCACGUGCGGGUGAUAGAGAGAAGUGAACCAGAGAAACACACGUUGUGGUAUAUUACCUGGUA [C18G A23U],0.752
13,GUCCUCUUUCACGUGCGGGUGAAAGAGAGAAGUGAACCAGAGAAACACACGUUGUGGUAUAUUACCGGGUA [C18G U67G],0.275
14,GUCCUCUUUCACGUGCGGGUGAAAGAGAGAAGUGAACCAGAGAAACACACGUUGUGGUAGAUUACCUGGUA [C18G U60G],0.483
15,GUCCUCUUUCACGUGCGGGUGAAAGAGAGAAGUGAACCAGAGAAACACACGUUGUGGUAAAUUACCUGGUA [C18G U60A],0.9
16,GUCCUCUUUCACGUGCGGGUGAAAGAGAGAAGUGAACCAGAGAAACACACGUUGUGGUACAUUACCUGGUA [C18G U60C],1.02
17,GUCCUCUUUCACGUGCGUGUGAAAGUGAGAAGUGAACCAGAGAAACACACGUUGUGGUAUAUUACCUGGUA [C18U A26U],0.59
18,GUCCUCUUUCACGUGCGUGUGAAAGGGAGAAGUGAACCAGAGAAACACACGUUGUGGUAUAUUACCUGGUA [C18U A26G],0.975
19,GUCCUCUUUCACGUGCGGGUGAAAGAGAGAAGUGAUCCAGAGAAACACACGUUGUGGUAUAUUACCUGGUA [C18G A36U],0.728
20,GUCCUCUUUCACGUGCGGGUGAAAGAGAGAAGUGAACCAGAGAAACACACGUUGUGAUAUAUUACCUGGUA [C18G G57A],0.118
21,GUCCUCUUUCACGUGCGGGUGAAAGAGAGAAGUGAACCAGAGAAACACACGUUGUGUUAUAUUACCUGGUA [C18G G57U],0.243
22,GUCCUCUUUCACGUGCGGGUGAAAGACAGAAGUGAACCAGAGAAACACACGUUGUGGUAUAUUACCUGGUA [C18G G27C],0.0884
23,GUCCUCUUUCACGUGCGGGUGAAAGAGAGAAGUGAACCAGAGAAACACACGUUGUAGUAUAUUACCUGGUA [C18G G56A],0.14
24,GUCCUCUUUCACGUGCGGGUGAAAGAGAGAAGUGAACCAGAGAAACACACGUUGUCGUAUAUUACCUGGUA [C18G G56C],0.176
25,GUCCUCUUUCACGUGCGGGUGAAAGAGUGAAGUGAACCAGAGAAACACACGUUGUGGUAUAUUACCUGGUA [C18G A28U],0.5
26,GUCCUCUUUCACGUGCGGGUGAAAGAGAGAAGUGAACCAGAGAAACACACGUUGGGGUAUAUUACCUGGUA [C18G U55G],0.311

row,Variant,self-cleavage
1,GUCCUCUUUCACGUGCGGGUGAAAGAGAGAAGUGAACCAGAGAAACACACGUUGUGGUAUAUUAGCUGGUA [C18G C65G],0.212
2,GUCCUCUUUCACGUGCGGGUGAAAGAGAGAAGUGAACCAGAGAAACACACGUUGUGGUAUAUUACCUGGCA [C18G U70C],0.881
3,GUCCUCUUUCACGUGCGGGUGAAAGAGAGAAGUGAACCAGAGACACACACGUUGUGGUAUAUUACCUGGUA [C18G A44C],0.164
4,GUCCUCUUUCACGUGCGGGUGAAAGAGAGAAGUGAACCAGAGAUACACACGUUGUGGUAUAUUACCUGGUA [C18G A44U],0.135
5,GUCCUCUUUCACGUGCGGGUGAAAGAGAGAAGUGAACCAGAGAAACACACGUUAUGGUAUAUUACCUGGUA [C18G G54A],0.51
6,GUCCUCUUUCACGUGCGGGUGAAAGAGAGAAGUGAACCAGAGAAACACACGUUUUGGUAUAUUACCUGGUA [C18G G54U],0.449
7,GUCCUCUUUCACGUGCGGGUGAAAGAGAGAAGUGAACCAGAGAAACACAAGUUGUGGUAUAUUACCUGGUA [C18G C50A],0.245
8,GUCCUCUUUCACGUGCGGGUGAAAGAGAGAAGUGAACCAGAGAAACACAGGUUGUGGUAUAUUACCUGGUA [C18G C50G],0.176
9,GUCCUCUUUCACGUGCGGGUGAAAGAGAGAAGUGAAGCAGAGAAACACACGUUGUGGUAUAUUACCUGGUA [C18G C37G],0.259
10,GUCCUCUUUCACGUGCGGGUGAAAGAGAGAAGUGAAACAGAGAAACACACGUUGUGGUAUAUUACCUGGUA [C18G C37A],0.235
11,GUCCUCUUUCACGUGCGGGUGAAAGAGAGAAGUGAAUCAGAGAAACACACGUUGUGGUAUAUUACCUGGUA [C18G C37U],0.493
12,GUCCUCUUUCACGUGCGGGUGAAAGAGAGAAGUGAACCAGAGAAACACACGCUGUGGUAUAUUACCUGGUA [C18G U52C],1.04
13,GUCCUCUUUCACGUGCGGGUGAAAGAGAGAAGUGAACCAGAGAAACACACGAUGUGGUAUAUUACCUGGUA [C18G U52A],0.833
14,GUCCUCUUUCACGUGCGGGUGAAAGAGAGAAGUGAACCAGAGAAACACACGUUGUGGUAUAUUCCCUGGUA [C18G A64C],0.158
15,GUCCUCUUUCACGUGCGGGUGAAAGAGAGAAGUGAACCAGAGAAACACACGUUGUGGUAUAUUGCCUGGUA [C18G A64G],0.463
16,GUCCUCUUUCACGUGCGGGUGAAAGAGAGAAGUGAACCAGAGAAACACACGUUGUGGUAUAUUUCCUGGUA [C18G A64U],0.18
17,GUCCUCUUUCACGUGCGAGUGAAAGAGAGAAGUGAACCAGAGAAACACACGUUGCGGUAUAUUACCUGGUA [C18A U55C],0.3
18,GUCCUCUUUCACGUGCGGGUGAAAGAGAGAGGUGAACCAGAGAAACACACGUUGUGGUAUAUUACCUGGUA [C18G A31G],0.549
19,GUCCUCUUUCACGUGCGGGUGAAAGAGAGAUGUGAACCAGAGAAACACACGUUGUGGUAUAUUACCUGGUA [C18G A31U],0.165
20,GUCCUCUUUCACGUGCGGGUGAAAGAGAGAAGUGAACCAGAGAAACACACGUUGUGGUAUAUUACCUGCUA [C18G G69C],0.205
21,GUCCUCUUUCACGUGCGGGUGAAAGAGAAAAGUGAACCAGAGAAACACACGUUGUGGUAUAUUACCUGGUA [C18G G29A],0.133
22,GUCCUCUUUCACGUGCGGGUGAAAGAGAGAAGUGAACCAGAGAAACACACGUUGUGGUAUAUUACCUUGUA [C18G G68U],0.171
23,GUCCUCUUUCACGUGCGGGUGAAAGAGAGAAGUGAACCAGAGAAACACUCGUUGUGGUAUAUUACCUGGUA [C18G A49U],0.196
24,GUCCUCUUUCACGUGCGGGUGAAAGAGAGAAGUGAACCAGAGAAACACCCGUUGUGGUAUAUUACCUGGUA [C18G A49C],0.12
